The target of this test is T1, full-length mFLT3 (Mus musculus, UniProt Q00342).
T1 construct: host or cells: HEK293T
T1 sequence (Q00342 28-1000): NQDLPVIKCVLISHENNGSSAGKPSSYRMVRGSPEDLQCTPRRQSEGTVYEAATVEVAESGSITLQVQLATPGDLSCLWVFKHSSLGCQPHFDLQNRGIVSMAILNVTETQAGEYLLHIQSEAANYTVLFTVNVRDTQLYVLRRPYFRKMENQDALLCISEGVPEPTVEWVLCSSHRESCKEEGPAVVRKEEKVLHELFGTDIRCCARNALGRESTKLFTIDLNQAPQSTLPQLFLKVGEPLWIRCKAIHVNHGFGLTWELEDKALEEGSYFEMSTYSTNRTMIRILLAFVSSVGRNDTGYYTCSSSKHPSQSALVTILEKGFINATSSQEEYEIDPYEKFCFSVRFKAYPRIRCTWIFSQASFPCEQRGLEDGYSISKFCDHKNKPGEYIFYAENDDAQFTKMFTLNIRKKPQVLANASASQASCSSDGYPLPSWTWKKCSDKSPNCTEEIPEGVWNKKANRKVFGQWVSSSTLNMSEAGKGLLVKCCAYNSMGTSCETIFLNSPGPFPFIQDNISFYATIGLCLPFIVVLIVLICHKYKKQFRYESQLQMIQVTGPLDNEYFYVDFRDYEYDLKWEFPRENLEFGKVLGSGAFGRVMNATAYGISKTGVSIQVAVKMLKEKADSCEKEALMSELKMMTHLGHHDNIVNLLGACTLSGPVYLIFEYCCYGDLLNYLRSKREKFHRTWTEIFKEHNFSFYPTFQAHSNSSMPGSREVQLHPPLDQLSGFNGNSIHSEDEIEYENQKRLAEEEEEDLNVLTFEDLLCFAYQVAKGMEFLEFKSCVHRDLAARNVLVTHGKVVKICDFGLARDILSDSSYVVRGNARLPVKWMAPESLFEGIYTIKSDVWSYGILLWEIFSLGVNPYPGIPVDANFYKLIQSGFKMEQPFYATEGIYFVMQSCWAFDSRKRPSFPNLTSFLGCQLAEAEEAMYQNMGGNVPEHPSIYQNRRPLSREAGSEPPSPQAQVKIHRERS
Nature of the test: TR-FRET displacement of Red-FL binding, HEK cells expressing full-length mFLT3. The conditions noted are these: HEK cells expressing full-length mFLT3, 0.5 nM Red-FL. Here is the method: The binding of the A3 antibody to full-length hFLT3 and mFLT3 was measured by displacement of extracellular FL binding on recombinant HEK cells by using time-resolved fluorescence resonance energy transfer (TR-FRET).
Chemicals and reagents. The Tag-lite® labeling medium was from Cisbio Bioassays (Condolet, France). The Lumi4-Tb derivative of O6-Benzylguanine was synthesized by Cisbio Bioassays and is commercialized as SNAP-Lumi4-Tb (Cisbio Bioassays, Ref. SSNPTBE).
A recombinant rh-FLT3-L was produced as previously reported (Verstraete K, et al. Efficient production of bioactive recombinant human Flt3 ligand in E. coli. Protein J, 2009 28: 57-65) and labeled with a red fluorescent probe (Red-FL). Poly-L-ornithine (MW of 30,000-70,000 daltons) was from Sigma-Aldrich. The plasmids encoding for the SNAP tagged human FLT3 (pSNAP-hFLT3) or the mouse FLT3 (pSNAP-mFLT3) used for transient transfection was obtained from Cisbio Bioassays. Monoclonal antibodies against FLT3 (8F2) and phosphotyrosine FLT3 (PY969) were purchased from Cell Signaling Technology and labeled with Lumi4-Tb and d2 respectively, by Cisbio.
Cell culture. HEK293T cells, used for binding assays, were maintained in DMEM Glutamax (Invitrogen) supplemented with antibiotics (penicillin 50 U/ml, streptomycin 50 μg/ml) and 10% heat-inactivated Fetal Calf Serum.
Transfection procedures. […]
In general terms: In TR-FRET formats the signal depends on donor and acceptor labels being close together.

B1: A3 antibody: human monoclonal antibody against FLT3; VH SEQ ID NO:1, VL SEQ ID NO:2 (antibody, V domains shown)
VH: EVQLVESGGSLVKPGGSLRLSCAASGFTFSNSYMNWVRQAPGKGLEWISDISGSSRDIDYADFVKGRFTISRDNATNSLYLQMNSLRAEDTAVYYCVRSGNSGMDVWGRGTLVTVSS
VL: QSVLTQPASVSGSPGQSITISCAGTSSDVGGGYYVSWYQQHPGKAPKLMIYYDSYRPSGVSNRFSGSKSGNTASLTISGLQAEDEADYYCSSYTNNSTRVFGGGTKLEIK
modifications: Synthetic VH domain of A3; Synthetic VL region of A3
For the molecule B1, the “IC50, displacement of FL binding” value is given as “about 17 μg/ml”.

(Values after patent publication US10781452B2, “FLT3 receptor antagonists for the treatment or the prevention of pain disorders” (INSTITUT NATIONAL DE LA SANTE ET DE LA RECHERCHE MEDICALE …, priority 2010, dated 2020).)
